B1: TRIM63 (parent)
chain: QEKKLSFIEALIQQYQEQLDKSTK

Variants of: B1
Assay: protein stability index of a GFP-peptide fusion (GPS, HEK-293T) (PSI 1-6); higher = more stable
Conditions: c terminus: a fixed tail appended
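Note: lentivirally expressed fusions sorted by FACS into six bins by GFP to DsRed ratio, PSI derived from sequencing read proportions per bin multiplied by bin number.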

Protein stability index of substitutions, site by site:
I12: Y 2.37, A 3.8, V 2.6, G 3.98, S 4.28, W 2.11, K 3.7, R 2.33, E 4.39, C 3.87, P 5.67, L 3.51, F 3.18
D20: I 1.31, M 2.98, F 1.66, R 1.77, A 2.5, P 2.46, H 1.77
Q13: N 2.79, F 1.84, P 4.35, R 2.7, C 2.67, T 2.74, G 2.53, V 1.98, I 2.02
K4: C 1.9, F 2.18, D 3.48, V 2.02, E 2.73, T 2.49, I 1.96, H 3.22, Q 3.4, G 3.03, S 2.83, A 1.87, W 1.85
Q18: E 2.51, C 2.34, W 3, V 2.3, G 1.95, M 1.81, L 2.25, N 3.28, H 1.79, A 2.37
Q14: C 2.8, S 3.5, H 2.03, R 2.2, T 3.07, I 2.98, L 2.89, V 2.49, D 3.17, A 2.43
Y15: V 2.09, P 4.56, L 2.08, F 1.86, D 4.75
I8: W 3.56, N 5.18, C 4.38, M 3.96, K 4.17, V 1.28, Y 3.63, T 2.64, R 4.08, P 4.89, A 3.83
L19: I 3.19, E 3.41, K 4.08, M 3.18, A 4.3, Q 3.21
Q1: H 2.28, F 1.91, S 2.4, W 2.76, C 2.37, L 1.49, V 2.39, M 1.99, D 2.21, Y 2.02, E 2.74
L5: W 2.12, C 2.69, D 3.93, V 2.57, Y 2.08, T 2.69, R 3.05, I 2.76, E 3.51, K 3.11, N 4.19
E9: C 2.05, R 2.82, T 1.79, W 1.6, K 3.62, Y 1.57, H 2.33, Q 2.76
K3: C 3.24, N 3.11, F 2.43, P 2.67, D 3.27, A 2.67, H 2.32, R 2.84, T 3.04, L 2.15
E2: K 1.81, V 1.74, M 1.92, S 1.87, I 1.92, L 2.73, G 2.93, H 2.58, Y 2.75, T 2
S6: A 2.16, C 2.74, R 3.16, I 1.74, D 3.02, T 2.54, W 1.46, V 2.42, N 2.59, M 2.03, F 2.32, Q 2.43, P 3.17
S22: E 3.21, K 2.52, Q 2.43, G 2.26, N 2.89, P 3.1, W 1.92, T 2.75, H 2.7, F 3.09, V 2.45
K24: W 1.67, S 2.61, N 2.79, L 2.47, F 1.71, Y 1.36, E 3.51, G 2.71, Q 2.68

From the supplement of paper PMC10567573
